Data reported in publication PMC3868223 (Cytokine, 2013).

Target: T1, IFN-γR1 (ligand-binding chain of the interferon-gamma receptor), fused to a fluorescent protein (UniProt P15260 18-489)
T1 sequence (looked up): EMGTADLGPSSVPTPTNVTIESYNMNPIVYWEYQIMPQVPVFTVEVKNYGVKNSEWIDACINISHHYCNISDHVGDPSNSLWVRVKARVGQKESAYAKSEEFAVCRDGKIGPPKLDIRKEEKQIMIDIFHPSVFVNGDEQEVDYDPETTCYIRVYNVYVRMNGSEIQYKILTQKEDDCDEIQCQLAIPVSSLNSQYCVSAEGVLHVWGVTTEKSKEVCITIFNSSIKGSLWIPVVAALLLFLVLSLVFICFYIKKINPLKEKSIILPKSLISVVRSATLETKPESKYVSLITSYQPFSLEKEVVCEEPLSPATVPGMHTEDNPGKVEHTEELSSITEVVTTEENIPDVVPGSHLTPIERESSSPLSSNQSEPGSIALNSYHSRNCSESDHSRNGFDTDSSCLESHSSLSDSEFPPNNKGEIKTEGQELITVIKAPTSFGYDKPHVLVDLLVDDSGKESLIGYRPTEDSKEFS
Assay: FRET or BRET

B1: IFN-γR2 (accessory chain of the interferon-gamma receptor), fused to a fluorescent protein (receptor, UniProt P38484 22-337, looked up)
chain: APPDPLSQLPAPQHPKIRLYNAEQVLSWEPVALSNSTRPVVYQVQFKYTDSKWFTADIMSIGVNCTQITATECDFTAASPSAGFPMDFNVTLRLRAELGALHSAWVTMPWFQHYRNVTVGPPENIEVTPGEGSLIIRFSSPFDIADTSTAFFCYYVHYWEKGGIQQVKGPFRSNSISLDNLKPSRVYCLQVQAQLLWNKSNIFRVGHLSNISCYETMADASTELQQVILISVGTFSLLSVLAGACFFLVLKYRGLIKYWFHTPPSIPLQIEEYLKDPTQPILEALDKDSSPKDDVWDSVSIISFPEKEQEDVLQTL
- fold higher apparent affinity than IFN-γR1 with DAF-ToFP: ~7 fold
